These results are taken from US20120128758A1.

This test has as its target mAb 2F5. Briefly: cell-based or functional assay.

Turning to QQEKNEQELLELDKWASLWN (modifications not checked) [SP62 peptide (gp41 652-671), …], the IC50 of 2F5 mAb against TND-669S pseudovirus after pre-absorption with 0.3 µM peptide came to 0.911 µg/mL.
